Data: article PMC3670040, “Structure of Lipid Kinase p110β/p85β Elucidates an Unusual SH2-Domain-Mediated Inhibitory Mechanism” (Molecular Cell, 2011)

System: p110β/p85β-nic
Assay: ATPase activity (ADP formation) in the absence of lipid substrate, Transcreener
Format: biochemical, mouse
Conditions: 35 nM complex; Figure 1D
Protocol: Figure 1 Inhibition of p110β by p85-Type Regulatory Subunits and Activation of the Complexes by RTK Phosphopeptide (A) Domain organization of p110β and the regulatory subunits p85α, p85β, and p55γ. The color scheme for the domains is used for all figures, unless otherwise stated. […] The inhibition is released upon addition of the 10 μM PDGFR pY2. […] The y axis is expressed as a change in fluorescence polarization (ΔmP), which is obtained by subtracting the observed polarization for the construct at a given enzyme concentration from the maximum fluorescence polarization for that construct. The plateau in these assays arises due to the competitive nature of the ADP detection system, based on displacement of ADP-Alexa 633 tracer from the ADP^2-antibody by ADP generated during the PI3K assay (see Supplemental Experimental Procedures). All measurements were done in triplicates, and the error bars indicate the standard error of the mean (SEM). […]
The lipid kinase activity was determined using the Transcreener ADP2 FP Assay (BellBrook Labs, Madison, WI) according to manufacturer‟s specifications. This non-radioactive assay measures activity by quantitating the amount of ADP formed. The ADP formed by PI3K competes with fluorescent ADP tracer for binding to an anti-ADP antibody, thereby decreasing fluorescence polarization. […]

B1: p110β-ΔCter/nic: truncation mutant lacking 17 residues from the p110β C terminus; human ΔCter (1-1053) used in cells (protein, UniProt P42338 1-1053, looked up, fragment)
chain: MCFSFIMPPAMADILDIWAVDSQIASDGSIPVDFLLPTGIYIQLEVPREATISYIKQMLWKQVHNYPMFNLLMDIDSYMFACVNQTAVYEELEDETRRLCDVRPFLPVLKLVTRSCDPGEKLDSKIGVLIGKGLHEFDSLKDPEVNEFRRKMRKFSEEKILSLVGLSWMDWLKQTYPPEHEPSIPENLEDKLYGGKLIVAVHFENCQDVFSFQVSPNMNPIKVNELAIQKRLTIHGKEDEVSPYDYVLQVSGRVEYVFGDHPLIQFQYIRNCVMNRALPHFILVECCKIKKMYEQEMIAIEAAINRNSSNLPLPLPPKKTRIISHVWENNNPFQIVLVKGNKLNTEETVKVHVRAGLFHGTELLCKTIVSSEVSGKNDHIWNEPLEFDINICDLPRMARLCFAVYAVLDKVKTKKSTKTINPSKYQTIRKAGKVHYPVAWVNTMVFDFKGQLRTGDIILHSWSSFPDELEEMLNPMGTVQTNPYTENATALHVKFPENKKQPYYYPPFDKIIEKAAEIASSDSANVSSRGGKKFLPVLKEILDRDPLSQLCENEMDLIWTLRQDCREIFPQSLPKLLLSIKWNKLEDVAQLQALLQIWPKLPPREALELLDFNYPDQYVREYAVGCLRQMSDEELSQYLLQLVQVLKYEPFLDCALSRFLLERALGNRRIGQFLFWHLRSEVHIPAVSVQFGVILEAYCRGSVGHMKVLSKQVEALNKLKTLNSLIKLNAVKLNRAKGKEAMHTCLKQSAYREALSDLQSPLNPCVILSELYVEKCKYMDSKMKPLWLVYNNKVFGEDSVGVIFKNGDDLRQDMLTLQMLRLMDLLWKEAGLDLRMLPYGCLATGDRSGLIEVVSTSETIADIQLNSSNVAAAAAFNKDALLNWLKEYNSGDDLDRAIEEFTLSCAGYCVASYVLGIGDRHSDNIMVKKTGQLFHIDFGHILGNFKSKFGIKRERVPFILTYDFIHVIQQGKTGNTEKFGRFRQCCEDAYLILRRHGNLFITLFALMLTAGLPELTSVKDIQYLKDSLALGKSEEEALKQFKQKFDEALRESW
ATPase activity in the absence of lipid substrate: increased
